In patent publication US20130149309A1:

Biological target: γ-secretase of HEK293 cell membrane preparations
Test: cell-based or functional assay

- Aβ production in an in vitro γ-secretase assay: 2.4 fold
Substance: recombinant gSAP-16K (aa733-854 of the human gSAP), expressed and purified from BL21 DE3 E.coli (from UniProt A4D1B5 733-854)
